From patent US20180186896A1 come the findings set out here.

The test addresses membrane IgE C2C4 expressed on Ramos cells (in the presence of Ig-alpha and Ig-beta) (human) (UniProt P01854). Nature of the test: flow cytometry, MFI on C2C4-expressing Ramos cells divided by MFI on non-induced cells.
As to “Negative controls (right sample block, starting with no primary AB)”, the MFI ratio amounted to 1. Next, “positive control mAB anti-IgE BSW17 (antibody)”: more than 5; “positive control mAB anti-IgE Le27 (antibody)”: more than 5.
